Source: US20260234240A1 (published 2026)

Assays:
cynoIL10 = assay: kinetic binding assay
Cyno IL10 = assay: SPR
[1] = target: T1, IL-10 (Accession no. P22301) (UniProt P22301 19-178); assay: SPR
T1 chain: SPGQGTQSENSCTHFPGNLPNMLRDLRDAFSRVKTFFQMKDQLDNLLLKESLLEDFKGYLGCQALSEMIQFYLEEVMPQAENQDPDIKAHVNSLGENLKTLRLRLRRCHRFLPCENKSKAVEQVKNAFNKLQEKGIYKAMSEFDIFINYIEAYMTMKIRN

[2] = target: T1, IL-10 (Accession no. P22301); assay: kinetic binding assay
hIL10R1 = assay: kinetic binding assay
MK1966 = assay: SPR
MK1966 (benchmark) = assay: kinetic binding assay

B1: h49G08 (antibody, V domains shown)
VH: EVQLVESGGGLVQPGGSLRLSCAASGFTFSDYYMYWVRQAPGKGLEWVSTISDGGSYTYYPDSVKGRFTISRDNAKNNLYLQMNSLRAEDTAVYYCARGYYYGLFTYWGQGTLVTVSS
VL: DIQMTQSPSSLSASVGDRVTITCRASQDVNTGLNWYQQKPGQAPKLLIYWASSRQSGVPSRFSGSGSGTDFTLTISSLQPEDFATYYCQQHYSTPYTFGQGTKLEIK
B1 was tested. Which Kd (cynoIL10) did it give?
The Kd was < 0.001 nM.

B2: hu49G08 (antibody, V domains shown)
VH: EVQLVESGGGLVQPGGSLRLSCAASGFTFSDYYMYWVRQAPGKGLEWVSTISDGGSYTYYPDSVKGRFTISRDNAKNNLYLQMNSLRAEDTAVYYCARGYYYGLFTYWGQGTLVTVSS
VL: DIQMTQSPSSLSASVGDRVTITCRASQDVNTGLNWYQQKPGQAPKLLIYWASSRQSGVPSRFSGSGSGTDFTLTISSLQPEDFATYYCQQHYSTPYTFGQGTKLEIK
With B2 as the binder, how does the Kd (Cyno IL10) read?
The Kd was 0.11 nM.

B3: 49G08_H1L2 (antibody, V domains shown)
VH: EVQLVESGGGLVQPGGSLRLSCAASGFTFSDYYMYWVRQAPGKGLEWVSTISDGGSYTYYPDSVKGRFTISRDNAKNNLYLQMNSLRAEDTAVYYCARGYYYGLFTYWGQGTLVTVSS
VL: DIQMTQSPSSLSASVGDRVTITCRASQDVNTGLNWYQQKPGQAPKLLIYWASSRQSGVPSRFSGSGSGTDFTLTISSLQPEDFATYYCQQHYSTPYTFGQGTKLEIK
Which results are given for B3?
Kd [1]: 0.16 nM; Kd [2]: 0.0199 nM

B4: αIL-10R candidate (antibody, V domains shown)
VH: QVQLQESGPGLVKPSETLSLTCTVSGGSISSDYWSWIRQPAGKRLEWIGRIFTSGSTNYNPSLKSRVTMSVDTSKNQFSLKLNSLTAADTAVYYCARDDWYFDLWGRGTLVTVSS
VL: EIVMTQSPATLSVSPGERATLSCRASQSVSNNLAWYQQKPGQAPRFLIYGASTRATGMPARFSGSGSGTEFTLTISSLQSEDFAVYFCQQYNEWPWTFGQGTKVEIK
With B4 as the binder, how does the Kd (hIL10R1) read?
Its Kd is 0.117 nM.

B5: Human IL10 (ligand)
chain: SPGQGTQSENSCTHFPGNLPNMLRDLRDAFSRVKTFFQMKDQLDNLLLKESLLEDFKGYLGCQALSEMIQFYLEEVMPQAENQDPDIKAHVNSLGENLKTLRLRLRRCHRFLPCENKSKAVEQVKNAFNKLQEKGIYKAMSEFDIFINYIEAYMTMKIRN
How did the Kd (MK1966) turn out when B5 was run?
The Kd was 0.14 nM.

B6: hIL10 (ligand)
chain: SPGQGTQSENSCTHFPGNLPNMLRDLRDAFSRVKTFFQMKDQLDNLLLKESLLEDFKGYLGCQALSEMIQFYLEEVMPQAENQDPDIKAHVNSLGENLKTLRLRLRRCHRFLPCENKSKAVEQVKNAFNKLQEKGIYKAMSEFDIFINYIEAYMTMKIRN
Which Kd (MK1966 (benchmark)) does the source give for B6 here?
Its Kd is 0.0266 nM.
